According to patent publication US20160280788A1, “USE OF ANTIBODIES AGAINST ICAM-1 IN THE TREATMENT OF PATIENTS WITH RELAPSED CANCER” (BioInvent International AB, priority 2010, published 2016):
“Also recorded” adds a separate entry of the source.

Tests used:
recombinant human ICAM-1 = recombinant human ICAM-1 (Homo sapiens, UniProt P05362); assay: ELISA on recombinant human ICAM-1, ICAM-2, ICAM-3; type: binding; conditions: vs ICAM-2, ICAM-3
Description: Antibody-specific bands were excised and subjected to tryptic digestion and analyzed by MALDI-TOF. The single band precipitated by BI-505 was identified as ICAM-1. The established identity of ICAM-1 was confirmed by blocking studies by up to 50-fold molar excess soluble recombinant ICAM-1 or VCAM. The MFI of BI-505 to PC-3 cells was determined by flow cytometry. Dashed line represents the negative control antibody and gray solid histogram represents the MFI of BI-505 with no preblocking. BI-505 was preblocked by recombinant VCAM or ICAM-1. […] Anti-ICAM-2 and α-ICAM-3 antibodies were used as positive controls to detect ICAM-2 and ICAM-3 respectively.

ARH-77 tumors = assay: Subcutaneous scid/ARH-77 xenograft, established (palpable tumor) model; conditions: IgG B11 even at 0.2 mg/kg (100-fold lower dose than rituximab)
Description: Mice were anaesthetized with a mixture of sevofluran and oxygen prior to myeloma cell inoculation and 1-5×10^6 myeloma cells were then subcutaneously injected in a volume of 100 μl into the left flank. Treatment with antibodies by intraperitonial (i.p.) injections was started either the day after cell inoculation (prophylactic model) or when tumors reached a size of approximately 100 mm^3 (established model). Antibodies were administrated in PBS in a total volume of 200 μL. Treatment with PBS or isotype control was used as control. Tumors were measured with a digital calliper and the tumor volumes were calculated according to formula: width^2×length×0.52. Animals were sacrificed when the tumor sizes reached the ethical limit of 1.5 cm. Surviving mice were sacrificed after a maximum of 5 months. Blood samples collected from the vena cava were centrifuged at 2500 g for 15 min to obtain serum and the samples were stored at −20° C. Tumors were removed for immunohistochemistry, snap frozen and were kept at −85° C.

ARH-77 cells = assay: Disseminated scid/ARH-77 model of multiple myeloma; type: in vivo, scid mice; conditions: i.v. on Days 7, 10, 13, 16; antibody 2 mg/kg, bortezomib 0.5 mg/kg; vs control
Description: (§1) ARH-77 cells or RPMI-8226 were injected intraveniously into the SCID mice. (FIG. 6A) ARH-77 model. Animals received intravenous injections with antibody at 2 mg/kg or bortezomib (Velcade) at 0.5 mg/kg on Days 7, 10, 13, and 16 (as indicated by arrows in the graph). (FIG. 6B) RPMI-8226-model. BI-505 or control mAb was administered i.v at 2 mg/kg, twice weekly for 8 weeks, bortezomid, at 1 mg/kg, once weekly for 8 weeks, lenalidomide p.o with 2 mg/kg for 2 cycles consisting of 5 days of treatment and 2 days of wash out, melphalan i.v at 3 mg/kg, once weekly for 8 weeks, and dexamethasone (DXH) at 6 mg/kg/inj 3 times/week for 2 consecutive weeks. There were 6-10 mice per treatment group. Statistical significance was calculated using Log-rank Graphpad Prism software and determined at ***p<0.001. (FIG. 6C) To study the ICAM-1 level on human cells, the cells from different organs were stained and gated for CD38+/mCD45−/BI-505+. Left panel indicates the percentage of BI-505 positive cells in CD38+/mCD45 population and right panel the mean fluorescent intensity of the positive cells.
The anti-myeloma effect of BI-505 was examined in a disseminated model of multiple myeloma. The early and advanced disseminated model of multiple myeloma was performed at Oncodesign, Dijon, France. Briefly: 1×10^6 (early) or 5×10^6 (advanced) ARH-77 tumor cells in 200 μL of RPMI 1640 were injected intravenously (i.v) into the caudal vein of female scid mice (D0). Tumor cell injections were performed twenty four to forty eight hours after a whole body irradiation of mice (1.8 Gy, ^60Co, INRA, BRETENNIERES). The treatment was started at D5 (RPMI-8226 model) or D7 ([…] model) except alkeran which was administered at D10. B11 or control mAb was administered i.v. at 2 mg/kg, twice weekly for 8 weeks, bortezomib, at 1 mg/kg, once weekly for 8 weeks, lenalidomide p.o with 2 mg/kg for 2 cycles consisting of 5 days of treatment and 2 days of wash out, melphalan i.v. at 3 mg/kg, once weekly for 8 weeks and dexamethasone at 6 mg/kg, injected 2 consecutive weeks.
The disseminated model of scid/ARH-77 is a well-established experimental model that resembles human multiple myeloma disease progression and disease manifestation in many respects (33). We utilized this model to further characterize IgG B11 anti-myeloma activity (FIG. 6A). Intravenous injection of irradiated scid mice with 1×10^6 ARH-77 cells was previously shown to result in their dissemination and establishment in mouse bone-marrow, and resulting osteolytic bone-lesions and hypercalcemia, and ultimately, in animal paralysis or difficulty of breathing at which time animals were immediately sacrificed. […]

[1] = Mouse serum antibody levels by ELISA at end of xenograft experiment; type: in vivo; conditions: mouse serum at end of experimentation
Description: We next performed a dose-titration experiment to establish IgG B11 in vivo potency and the minimal dose achieving maximal anti-tumor activity, using the scid/ARH-77 model system. […] Mouse serum antibody trough concentrations were determined by ELISA at the end of experimentation. Trough antibody concentrations were then plotted against percent of maximal in vivo anti-tumour activity, and against percent of maximal ICAM-1 receptor occupancy and tumour cell PCD at corresponding antibody concentrations in vitro (FIGS. 3C, 3D, 3E, 3F and 3G). Strikingly, a near perfect correlation between antibody concentration and in vitro tumour cell receptor occupancy, in vitro tumor cell PCD, and in vivo anti-tumour activity was observed, consistent with ICAM-1 dependent direct cell cytotoxicity underlying in vivo anti-tumour activity.

NCI-H929 myeloma cells = assay: Subcutaneous myeloma xenograft, NCI-H929; type: in vivo, scid mice; conditions: 2 mg/kg twice weekly i.p.; vs control IgG1
Description: (§2) Antibody treatment with 2 mg/kg BI-505 or control IgG1 was started at Day 1 and was continued on a twice-weekly intraperitoneal dosing regimen. Mice were sacrificed when tumor sizes reached the ethical limit.

RPMI-8226 myeloma cells [2] = assay: Disseminated RPMI-8226 model of multiple myeloma; type: in vivo, SCID mice; conditions: 2 mg/kg i.v. twice weekly for 8 weeks, vs control mAb and standard of care drugs
Description: as §1
The anti-myeloma effect of BI-505 was examined in a disseminated model of multiple myeloma. The early and advanced disseminated model of multiple myeloma was performed at Oncodesign, Dijon, France. […]

RPMI-8226 myeloma cells [3] = assay: Subcutaneous myeloma xenograft, RPMI-8226; type: in vivo, scid mice; conditions: 2 mg/kg twice weekly i.p.; vs control IgG1
Description: as §2

Daudi cells = assay: Subcutaneous Daudi non-Hodgkin lymphoma xenograft; type: in vivo, scid mice; conditions: twice weekly i.p. from day 1; compared to rituximab
OPM-2 myeloma cells = assay: Subcutaneous myeloma xenograft, OPM-2 (ICAM-1 negative); type: in vivo, scid mice; conditions: 2 mg/kg twice weekly i.p.; ICAM-1 negative cell line
Description: as §2

Chain of recombinant human ICAM-1 (P05362 28-532): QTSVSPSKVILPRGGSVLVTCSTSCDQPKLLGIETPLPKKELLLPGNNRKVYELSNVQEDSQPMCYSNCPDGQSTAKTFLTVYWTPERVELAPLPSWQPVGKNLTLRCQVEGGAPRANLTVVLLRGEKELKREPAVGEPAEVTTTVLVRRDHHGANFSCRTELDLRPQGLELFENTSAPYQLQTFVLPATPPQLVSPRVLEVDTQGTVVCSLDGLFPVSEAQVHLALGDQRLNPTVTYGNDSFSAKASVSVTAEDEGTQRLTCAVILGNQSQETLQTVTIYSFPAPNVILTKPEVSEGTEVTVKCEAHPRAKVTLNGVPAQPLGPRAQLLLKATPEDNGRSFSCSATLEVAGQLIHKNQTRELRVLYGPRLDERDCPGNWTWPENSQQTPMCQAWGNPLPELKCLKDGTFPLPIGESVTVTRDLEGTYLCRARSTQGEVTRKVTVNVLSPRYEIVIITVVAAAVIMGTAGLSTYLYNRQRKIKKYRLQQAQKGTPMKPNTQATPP

B1: IgG B11: fully human ICAM-1 antibody isolated from the n-CoDeR library; VH/VL sequences in FIG. 15 (SEQ ID NOs 8, 10) (antibody, V domains shown)
VH: EVQLLESGGGLVQPGGSLRLSCAASGFTFSNAWMSWVRQAPGKGLEWVAFIWYDGSNKYYADSVKGRFTISRDNSKNTLYLQMNSLRAEDTAVYYCARYSGWYFDYWGQGTLVTVSS
VL: QSVLTQPPSASGTPGQRVTISCTGSSSNIGAGYDVHWYQQLPGTAPKLLIYDNNNRPSGVPDRFSGSKSGTSASLAISGLRSEDEADYYCQSYDSSLSAWLFGGGTKLTVLG
modifications: B11 VH region; B11 VL region
specificity for ICAM-1 (recombinant human ICAM-1): high specificity
animal survival (ARH-77 tumors): prolonged animal survival
tumor growth (ARH-77 tumors): significantly prevented tumor growth
animal survival (ARH-77 cells): increased mean survival time
time to symptomatic disease onset (ARH-77 cells): doubled
In vivo IgG Levels (serum antibody titers) ([1]; dose 0.02 mg/kg): 0.06 ± 0.02 µg/mL
In vivo IgG Levels (serum antibody titers) ([1]; dose 0.2 mg/kg): 1.2 ± 0.4 µg/mL
In vivo IgG Levels (serum antibody titers) ([1]; dose 2 mg/kg): 20 ± 2.9 µg/mL
reduction of myeloma tumor growth (NCI-H929 myeloma cells): 99%
survival (RPMI-8226 myeloma cells [2]): significantly enhanced survival
survival (RPMI-8226 myeloma cells [2]; listed as BI-505): significantly enhances survival; also recorded: highly improved survival
reduction of myeloma tumor growth (RPMI-8226 myeloma cells [3]): 96%
survival of tumor bearing mice (Daudi cells): prolonged survival
tumor growth (Daudi cells): prevented tumor growth
tumor growth (OPM-2 myeloma cells): no effect on tumor growth; also recorded: did not affect tumor growth
